B1: HDV Ribozyme (parent)
chain: GGCCGGCAUGGUCCCAGCCUCCUCGCUGGCGCCGGCUGGGCAACAUUCCGAGGGGACCGUCCCCUCGGUAAUGGCGAAUGGGACCCA

Variants of: B1
Test: self-cleavage, relative activity (ratio to wild type); higher = more cleavage; co-transcriptional

Point of comparison: C22G C63U, self-cleavage 0.147. Against it:
- C21U C30A — higher, 0.153
- U23G G80A — lower, 0.134
- U23G G80U — lower, 0.129
- U23G A78G — higher, 0.262
- U23G A78U — lower, 0.0875
- C22U C62U — higher, 0.842
- C21U A56G — higher, 0.315
- C21U A56U — higher, 0.3
- U23C A45G — higher, 0.8
- U23C A45U — higher, 0.675
- C22U G25A — lower, 0
- C22U G25U — lower, 0.0287
- U23C U79G — higher, 0.883
- C21U G67U — higher, 0.174
- C22G A83C — lower, 0.0898
- C21G U72G — lower, 0.0462
- U23A A78C — higher, 0.219
- C22U C85G — higher, 0.811
- U23G A45C — higher, 0.151
- U23G A45G — higher, 0.962
- U23C G53U — higher, 0.938
- C21U C66G — higher, 0.277
- U23C U47G — higher, 1.28
- U23C U47C — higher, 1.04
- C22U G55U — higher, 0.732
- C22A G54A — higher, 0.197
- U23A C61G — higher, 1.08
- U23A C61A — higher, 1.03
- U23C G55A — higher, 0.814
- C21U A71U — higher, 0.572
- C21U G29U — lower, 0.0504
- U23C U27G — higher, 1.06
- C22A U72G — higher, 0.332
- C22A U72A — lower, 0.0665
- C21U U23A — higher, 0.173
- C22A A43G — higher, 0.151
- C22A C61U — higher, 0.237
- C21U G81U — lower, 0.0875
- C21U G81C — lower, 0.106
- C21U G81A — lower, 0.0978
- C22A U23A — higher, 0.224
- C22U G50C — higher, 0.671
- C22U A71C — higher, 0.623
- C22A G80A — lower, 0.0479
- U23G G74A — lower, 0.0489
- C22G U37A — lower, 0.0845
- C21U A87U — higher, 0.368
- C22U G54U — higher, 0.808
- U23A A77C — higher, 0.332
- U23A A77U — higher, 0.567
- C22U G82U — higher, 0.23
- C22A A77G — higher, 0.38
- C21U G80U — lower, 0.0919
- U23G G55C — higher, 0.748
- U23C G35C — lower, 0.115
- U23C G35A — higher, 0.655
- C22U C36A — lower, 0.0739
- U23A G31A — higher, 0.489
- C22U A51C — higher, 0.928
- C22G U69A — lower, 0.095
- C22G U69C — lower, 0.0755
- C22A C36A — lower, 0.0536
- C22A C36G — lower, 0.0354
- C22A C36U — higher, 0.149
- C21U G25A — lower, 0.0997
- U23A C24A — higher, 0.623
- U23A C24U — higher, 0.199
- C22G U65C — lower, 0.0997
- C21U A83C — lower, 0.108
- U23C C24U — higher, 0.57
- U23C C24G — lower, 0.0437
- U23G G29U — lower, 0
- C22A A71G — higher, 0.393
- C22A A71C — lower, 0.0405
- C22A A71U — higher, 0.326
- C22U C48G — higher, 0.635
- C21U C64U — higher, 0.17
- C22G U46G — lower, 0.0875
- C22G U46A — lower, 0.0519
- U23G G28C — lower, 0
- C22U U72A — higher, 0.219
- C22U U72G — higher, 0.17
- C22U U65C — higher, 0.78
- C21U A77G — higher, 0.232
- U23A G55U — higher, 0.976
- C22U C26A — higher, 0.997
- C22G C36U — lower, 0.108
- U23A C41A — higher, 1.07
- C22A C63G — higher, 0.369
- C22A C63A — higher, 0.166
- C22A C63U — higher, 0.157
- U23G A70U — higher, 0.492
- U23C C57A — higher, 0.849
- C21U C26A — higher, 0.383
- U23G A87U — higher, 0.715
- U23G C24A — higher, 0.706
- U23G C24U — higher, 0.314
- C22U U60G — higher, 0.944
- C22U U60A — higher, 0.623
- C22U U60C — higher, 0.767
- C22G G28U — lower, 0.0739
- C22G G28A — lower, 0.0462
- C22U G76U — higher, 0.794
- C22U G76A — higher, 0.643
- U23A G73U — higher, 0.464
- U23C C36U — higher, 0.365
- C22G C48U — lower, 0.0594
- C22U G67C — higher, 0.535
- C22U G67A — higher, 0.522
- C22U A43U — lower, 0.0831
- U23G C63A — higher, 0.623
- U23A C57U — higher, 0.812
- U23A C57G — higher, 1.06
- U23A C57A — higher, 1.09
- U23G C41U — higher, 0.723
- C22U G28A — lower, 0.0804
- C22U G28C — lower, 0
- C22G G67A — lower, 0.0898
- C22U G73U — higher, 0.157
- C22U G73C — higher, 0.256
- C21U G68U — higher, 0.271
- C21U G68C — lower, 0.0875
- C21U G68A — higher, 0.252
- U23A G39C — higher, 0.204
- C22U C63G — higher, 0.782
- C21U G52U — higher, 0.182
- C22A G81A — higher, 0.205
- U23A G76C — higher, 1.1
- U23C A51G — higher, 0.978
- U23C A51U — higher, 1.15
- C22A C75U — lower, 0.128
- U23G C66A — higher, 0.724
- C22A C49A — lower, 0.128
- C21U G76A — higher, 0.271
- C22A C41G — higher, 0.175
- C21U C44A — higher, 0.437
- C22G G68C — lower, 0.0354
- U23G A43U — higher, 0.219
- C22U C30A — lower, 0.117
- C22U C30U — higher, 0.194
- U23A C62G — higher, 0.776
- U23C C85U — higher, 0.849
- C22G C44A — lower, 0.0426
- U23G C32G — higher, 0.237
- C21U A78U — higher, 0.148
- C21U A78C — lower, 0.058
- U23C C30G — lower, 0.0437
- U23C C30U — higher, 0.755
- C22G C62U — lower, 0.0346
- C22G C41A — lower, 0.0346
- C22U G59C — higher, 0.566
- C22A A56G — higher, 0.415
- C22A A56C — higher, 0.312
- C22U C44A — lower, 0.0898
- C21U G31U — higher, 0.173
- C22U C86G — higher, 0.692
- C22U C57G — higher, 0.914
- C22A U37C — lower, 0.0723
- C22A U37G — lower, 0.0462
- C21G U69A — lower, 0.0426
- U23A A42C — higher, 0.253
- C22A U65C — higher, 0.446
- U23G G34U — lower, 0.0959
- U23A A70U — higher, 0.962
- C22U C61G — higher, 0.545
- U23A G74U — higher, 0.348

Reference: the RNAGym collection of RNA variant scans (doi:10.7554/elife.80360)
